{"source": "patent US20090238821A1", "about": "(Eli Lilly, published 2009)", "binders": {"B1": {"name": "humanized 266 antibody (antibody, human IgG1, kappa, V domains shown)", "VH": "EVQLVESGGGLVQPGGSLRLSCAASGFTFSRYSMSWVRQAPGKGLELVAQINSVGNSTYYPDTVKGRFTISRDNAKNTLYLQMNSLRAEDTAVYYCASGDYWGQGTLVTVSS", "VL": "DVVMTQSPLSLPVTLGQPASISCRSSQSLIYSDGNAYLHWFLQKPGQSPRLLIYKVSNRFSGVPDRFSGSGSGTDFTLKISRVEAEDVGVYYCSQSTHVPWTFGQGTKVEIKR", "notes": "Mature antibody expressed from pVk-Hu266 and pVg1-Hu266 in Sp2/0 cells (clone 1D9), purified on protein A; human kappa and gamma 1 constant regions; also called Hu266"}}, "key": {"[1]": {"biological_target": "T1, β-amyloid peptide (1-42) conjugated to BSA (UniProt P05067 672-713, C-terminal Cys43 coupled to maleimide-activated bovine serum albumin)", "T1 construct": "domain: Aβ1-42; Coated on ELISA plates at 10 µg/mL; the carrier BSA is not written as a chain; also called Aβ1-42-BSA conjugate; Aβ1-42-Cys-BSA conjugate", "test": "competitive ELISA on Aβ1-42-BSA, competitor of biotinylated Mu266 (0.3 µg/ml), second set", "protocol": "(§1) The Aβ₁₋₄₂-BSA conjugate was prepared by dissolving 7.5 mg of Aβ₁₋₄₂-Cys₄₃(C-terminal cysteine Aβ₁₋₄₂, AnaSpec) in 500 μL of dimethylsulfoxide, and then immediately adding 1,500 μL of distilled water. Two (2) milligrams of maleimide-activated bovine serum albumin (Pierce) was dissolved in 200 μL of distilled water. The two solutions were combined, thoroughly mixed, and allowed to stand at room temperature for two (2) hours. A gel chromatography column was used to separate unreacted peptide from Aβ₁₋₄₂-Cys-BSA conjugate.\n(§2) After washing the wells with phosphate buffered saline (PBS) containing 0.1% Tween 20 (Washing Buffer) using an ELISA plate washer, the wells were blocked by adding 300 μL of SuperBlock reagent (Pierce) per well. After 30 minutes of blocking, the wells were washed Washing Buffer and excess liquid was removed.\n(§3) As a background control, 100 μl of ELISA Buffer was added. The ELISA plate was incubated at room temperature for 90 min. After washing the wells with Washing Buffer, 100 μl of 1 μg/ml HRP-conjugated streptavidin (Cat # 21124, Pierce) was added to each well. […] Absorbance was read at 415 nm. The absorbances were plotted against the log of the competitor concentration, curves were fit to the data points (using Prism) and the IC50 was determined for each antibody using methods well-known in the art."}, "[2]": {"biological_target": "T1, β-amyloid peptide (1-42) conjugated to …", "test": "competitive ELISA on Aβ1-42-BSA, competitor of biotinylated Mu266 (0.3 µg/ml), first set", "protocol": "as §1, §2, §3"}, "[3]": {"biological_target": "T2, Amyloid-beta 1-42 (UniProt P05067 672-713)", "T2 construct": "domain: Amyloid-beta 1-42; Numbers 1-42 count on the Aβ peptide, not on the APP entry; also called Aβ42; Aβ1-42", "test": "BIAcore, essentially as in Example 15", "procedure": "Antibody affinity (KD=Kd/Ka) was determined using a BIAcore biosensor 2000 and data analyzed with BIAevaluation (v. 3.1) software. A capture antibody (rabbit anti-mouse) was coupled via free amine groups to carboxyl groups on flow cell 2 of a biosensor chip (CM5) using N-ethyl-N-dimethylaminopropyl carbodiimide and N-hydroxysuccinimide (EDC/NHS). A non-specific rabbit IgG was coupled to flow cell 1 as a background control. Monoclonal antibodies were captured to yield 300 resonance units (RU). […] To regenerate the chip, bound anti-Aβ antibody was eluted from the chip using a wash with glycine-HCl (pH 2). A control injection containing no amyloid-beta served as a control for baseline subtraction."}}, "data": [{"binder": "B1", "values": [{"measurement": "IC50", "setting": "[1]", "value": 4, "unit": "µg/mL"}, {"measurement": "IC50", "setting": "[2]", "value": 7.5, "unit": "µg/mL"}, {"measurement": "Kd", "setting": "[3]", "value": 4, "unit": "pM"}]}]}
